Laboratory results as given in US20230093239 (published 2023).

Legend:
[1] = target: T1, alpha-thrombin (Homo sapiens, UniProt P00734;P00734 P00734:328-363,P00734:364-622); test: membrane-type surface stress sensor; voltage difference vs poly T control; 240 nM thrombin in PBS
[2] = target: T1, alpha-thrombin; test: negative control on membrane-type surface stress sensor, used as reference for voltage difference; 240 nM thrombin in PBS

Row | Binder | binding result [1] | binding result [2]
1 | GGTTGGTGTGGTTGGTTTTT (ssDNA) [thrombin aptamer (15-mer with T5 tail)] | binds | 
2 | TTTTTTTTTTTTTTTTTTTT (ssDNA) [poly T control] |  | no binding
